# In PMC3472557, “Structural Basis for ASPP2 Recognition by the Tumor Suppressor p73” (Journal of Molecular Biology, 2012):
# T1: ankyrin repeat and SH3 domains of human ASPP2 (residues P891–A1128) (human, UniProt Q13625 891-1128)
# T1 construct: ASPP2 (53BP2), human, ankyrin repeat and SH3 domains, residues P891-A1128, UniProt Q13625; cloned into pCOEX-LIC1; The limits are stated for the crystallised construct; also called 53BP2; source: E. coli BL21(DE3) R3 pRARE, purified (nickel-Sepharose, TEV protease, HiTrap Q, Superdex 200); not shown: His6, N-terminal, cleaved
# T1 sequence (looked up): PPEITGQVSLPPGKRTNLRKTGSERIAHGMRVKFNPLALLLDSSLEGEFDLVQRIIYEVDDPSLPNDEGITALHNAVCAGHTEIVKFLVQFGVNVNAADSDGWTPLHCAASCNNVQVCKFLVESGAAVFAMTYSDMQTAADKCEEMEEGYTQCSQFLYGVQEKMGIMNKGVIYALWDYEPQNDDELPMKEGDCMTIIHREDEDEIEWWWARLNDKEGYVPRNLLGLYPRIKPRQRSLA
# B1: p73 DBD (p73 amino acids 112–315) (domain or fragment, human, UniProt O15350 112-315, looked up)
# chain: APVIPSNTDYPGPHHFEVTFQQSSTAKSATWTYSPLLKKLYCQIAKTCPIQIKVSTPPPPGTAIRAMPVYKKAEHVTDVVKRCPNHELGRDFNEGQSAPASHLIRVEGNNLSQYVDDPVTGRQSVVVPYEPPQVGTEFTTILYNFMCNSSCVGGMNRRPILIIITLEMRDGQVLGRRSFEGRICACPGRDRKADEDHYREQQAL
# notes: It may be a misprint for 112-311; source: E. coli BL21(DE3) R3 pRARE, purified (said of all proteins)
# Molecular target: T1, ankyrin repeat and SH3 domains of human …
# Assay: native gel or EMSA; 20 uM ASPP2 with decreasing concentrations of p73 112-315; 4 °C overnight; 50 mM sodium phosphate, pH 7.2, 50 mM NaCl, 5 mM DTT, 50 mM L-arginine, 50 mM L-glutamate; 10% polyacrylamide gel in Tris-glycine, pH 8.3, Coomassie stain
# Details: both partners purified
binder,measurement,value
B1,binding result,binds
